The test system of this data set is [O]=[Cr](=[O])([OH])[OH]. As to the kind of experiment: purified protein. Conditions: 1 mM NADH, 50 mM Tris-Cl pH 7.0, 22°C.
A word on the Km: it is the substrate concentration at which the rate is half of its maximum. The term kcat denotes the number of substrate molecules converted per active site and unit of time at saturation. By kcat/Km is commonly meant the second-order rate constant that governs catalysis at low substrate concentration. Consider “ChrR_St (Salmonella enterica subsp. enterica serovar Typhi)”, for which the Km worked out at 37 ± 2 µM, the kcat was 0.031 s⁻¹ and the kcat/Km is 830 M⁻¹ s⁻¹.
For “NfsA_St (Salmonella enterica subsp. enterica serovar Typhi)” the same measures were 180 µM, 0.02 s⁻¹ and 140 M⁻¹ s⁻¹.
For “NfsB_St (Salmonella enterica subsp. enterica serovar Typhi)”, in that order: 320 ± 120 µM, 0.54 s⁻¹ and 1700 M⁻¹ s⁻¹.
